From patent publication US20080274959A1, “Actinomadura Chromoprotein, Apoprotein and Gene Cluster” (Wyeth, priority 2004, published 2008)

What was measured:
[1] = system: SW620; experiment: Potency against human tumor cell lines: SW620; format: cell-based; conditions: SW620, Colon
[2] = system: Supercoiled φX174 DNA; experiment: DNA cleavage assay, gel electrophoresis; format: biochemical
Protocol: Supercoiled φX174 DNA was incubated with various concentrations of the 21G792 chromoprotein and analyzed by gel electrophoresis. […] Nicked refers to single strand breaks in the DNA and linear refers to double strand breaks.

[3] = system: HN5; experiment: Potency against human tumor cell lines: HN5; format: cell-based; conditions: HN5, Head & Neck
[4] = system: Histone H1; experiment: Digestion of histone H1, SDS-PAGE; format: biochemical
Protocol: Histone H1 was incubated with various concentrations of the chromoprotein in 50 mM Tris-Cl, pH 7.5 overnight at 37° C. (FIG. 20) Digestions of histone were assessed by SDS-polyacrylamide gel electrophoresis (SDS-PAGE), followed by staining of the gel with GelCode Blue (Pierce Biotechnology, Inc, Rockford, Ill.).

[5] = system: HCT116 p21+/+ and −/− cells; experiment: COMET assay for DNA damage; format: cell-based, human; conditions: both p21-proficient and p21-deficient HCT116 cells
Description: A COMET assay obtained from Trevigen, Inc. was used to detect DNA damage. HCT116 p21+/+ and −/− cells were subjected to various amounts of the 21G792 chromoprotein and mitoxantrone.

[6] = system: HCT116; experiment: Potency against human tumor cell lines: HCT116; format: cell-based; conditions: HCT116, Colon
Protocol: The Actinomadura sp. 21G792 chromoprotein was added to an isogenic pair of cell lines (p21+/+ and p21−/−).

[7] = system: KB-V-1; experiment: IC50 against P-GP expressing cells: KB-V-1; format: cell-based; conditions: KB-V-1, P-GP level +++; mean of two independent experiments
Description: (§1) Human PGP (MDR1) is an ATP-dependent efflux pump which is capable of transporting many drugs across cell membranes. High level expression of this protein has been linked to multiple drug resistance of tumors. […] The protein component of the chromoprotein probably protects the chromophore from drug efflux mediated by MDR1, and may be responsible for the beneficial antitumor effects in colon cell lines which often express MDR1.

[8] = Toxicity in nude mice; format: in vivo; conditions: for Bone Marrow Necrosis, average lesion severity: 0 = WNL, 1 = slight, 2 = mild, 3 = moderate, 4 = marked, 5 = severe
Protocol: 21G792 chromoprotein is well-tolerated in nude mice. Specifically, saline control vehicle or the chromoprotein in various doses was administered intravenously to six nude mice on days 1, 5, and 9.

[9] = system: KB; experiment: IC50 against P-GP expressing cells: KB; format: cell-based; conditions: P-GP level −, mean of two independent experiments
Description: as §1

[10] = system: MCF-7; experiment: Potency against human tumor cell lines: MCF-7; format: cell-based; conditions: MCF-7, Breast

B1: Actinomadura sp. 21G792 chromoprotein: non-covalent complex of an apoprotein and a chromophore comprising a nine-membered enediyne, produced by Actinomadura sp. 21G792 (NRRL 30778) (protein)
chain: DTVTVNYDCVGYPSDIAVTIDAPATAGVGDTATFEVSSVVTTGAPQDLPAGEVVTDMAIVVGGAQSGTITASGLTNEATPAGQPVNMVGGEAQITFTSAGSVTFTPSTTTQVDNGAQCTVVGEAPVGATTVVS
IC50 [1]: 2 ng/mL
need of a reducing agent (dithiothreitol, DTT) for DNA cleavage [2]: did not require a reducing agent
DNA cleavage ([2]; various concentrations, reaction progressed over 24 hours): induced single strand breaks and double strand breaks
IC50 [3]: 4 ng/mL
digestion of histone H1 on addition of DNA [4]: inhibited by addition of DNA
digestion of histones on addition of free radical scavengers ([4]; 30 mM glutathione or N-acetyl cysteine): inhibited by the addition of free radical scavengers
digestion of histone H1 ([4]; 50 mM Tris-Cl, pH 7.5 overnight at 37° C.): digestion of Histone H1
digestion of histones on addition of protease inhibitors ([4]; PMSF, Leupeptin, Aprotinin, Pepstatin A): not by protease inhibitors
concentration at which dose-dependent DNA strand breaks occur [5]: > 100 ng/mL
IC50 [6]: 1000 ng/mL
IC50 [7]: 142 ng/mL
Lymphocytes ([8]; 3 mg/kg): 290 cells/μl
WBC ([8]; 3 mg/kg): 1430 cells/μl
Bone Marrow Necrosis, number with lesion/total number examined ([8]; 3 mg/kg i.v. days 1, 5, 9): 6/6
Bone Marrow Necrosis, average lesion severity ([8]; 3 mg/kg): 1.7
Lymphocytes ([8]; 6 mg/kg): 40 cells/μl
WBC ([8]; 6 mg/kg): 1280 cells/μl
Bone Marrow Necrosis, number with lesion/total number examined ([8]; 6 mg/kg i.v. days 1, 5, 9): 6/6
Bone Marrow Necrosis, average lesion severity ([8]; 6 mg/kg): 3
tolerability ([8]; intravenous on days 1, 5 and 9): well-tolerated
adverse effects in the intestine, nerves, spinal cord, liver, or at the site of injection ([8]; mouse, in vivo): No adverse effects
IC50 [9]: 10 ng/mL
IC50 [10]: 2 ng/mL
